This passage reports peptide exchange yield results from patent publication US20200087364A1 (IMMATICS BIOTECHNOLOGIES, published 2020).

The chains are these.
B1: KIRAEVLSHY (peptide)
peptide: KIRAEVLSHY
B2: CYTADNEMGY (peptide)
peptide: CYTADNEMGY
B3: SSTDFTFASW (peptide)
peptide: SSTDFTFASW
B4: NDEIDKLTGY (peptide)
peptide: NDEIDKLTGY
B5: TQKSVQVLAY (peptide)
peptide: TQKSVQVLAY
B6: VSVYNSYPY (peptide)
peptide: VSVYNSYPY
B7: QSTTGVSHY (peptide)
peptide: QSTTGVSHY
B8: SVTDLIGGKW (peptide)
peptide: SVTDLIGGKW
B9: LSSAVNPIIY (peptide)
peptide: LSSAVNPIIY
B10: EVLGEEMYAY (peptide)
peptide: EVLGEEMYAY
B11: IADNPQLSFY (peptide)
peptide: IADNPQLSFY
B12: RSDPVSLRY (peptide)
peptide: RSDPVSLRY
B13: LSAQHRMLA (peptide)
peptide: LSAQHRMLA
B14: NSDISIPEY (peptide)
peptide: NSDISIPEY
B15: FRGVFVHRY (peptide)
peptide: FRGVFVHRY
B16: VSSTVHNLY (peptide)
peptide: VSSTVHNLY
B17: FSEPFHLIV (peptide)
peptide: FSEPFHLIV
B18: LLEGEDAHLTQY (peptide)
peptide: LLEGEDAHLTQY
B19: SLPEFGLTY (peptide)
peptide: SLPEFGLTY
B20: LSQDELSKF (peptide)
peptide: LSQDELSKF
B21: QTDINGGSLK (peptide)
peptide: QTDINGGSLK
B22: LLISKAEDY (peptide)
peptide: LLISKAEDY
B23: EAAPDIMHY (peptide)
peptide: EAAPDIMHY
B24: VQDPSLPVY (peptide)
peptide: VQDPSLPVY
B25: TSEVEGLAFVSY (peptide)
peptide: TSEVEGLAFVSY
B26: TQPELSSRY (peptide)
peptide: TQPELSSRY
B27: NVKEAPTEY (peptide)
peptide: NVKEAPTEY
B28: RLAQYTIERY (peptide)
peptide: RLAQYTIERY
B29: EADPFLKYL (peptide)
peptide: EADPFLKYL
B30: KTIQEVAGY (peptide)
peptide: KTIQEVAGY
B31: AQISDTGRY (peptide)
peptide: AQISDTGRY
B32: LLEADPFLKY (peptide)
peptide: LLEADPFLKY
B33: KLAGTVFQY (peptide)
peptide: KLAGTVFQY
B34: DIPDYLLQY (peptide)
peptide: DIPDYLLQY
B35: LTEGHSGNY (peptide)
peptide: LTEGHSGNY
B36: NSDESADSEPHKY (peptide)
peptide: NSDESADSEPHKY
B37: VSDSTTEITY (peptide)
peptide: VSDSTTEITY
B38: ITDFGLAKL (peptide)
peptide: ITDFGLAKL
B39: YHRICELLSDY (peptide)
peptide: YHRICELLSDY
B40: SLPEFGLTYY (peptide)
peptide: SLPEFGLTYY
B41: KLTDYINANY (peptide)
peptide: KLTDYINANY
B42: RMQEGSEVY (peptide)
peptide: RMQEGSEVY
B43: YLNEWGSRF (peptide)
peptide: YLNEWGSRF
B44: ASWAVLCYY (peptide)
peptide: ASWAVLCYY
B45: TVDNANILL (peptide)
peptide: TVDNANILL
B46: VQPGETYTY (peptide)
peptide: VQPGETYTY
B47: HTDLESPSAVY (peptide)
peptide: HTDLESPSAVY
B48: RQAPGPARDY (peptide)
peptide: RQAPGPARDY
B49: LAFYYGMY (peptide)
peptide: LAFYYGMY
B50: GLEYEAPKLY (peptide)
peptide: GLEYEAPKLY
B51: FTRAFDQLRM (peptide)
peptide: FTRAFDQLRM
B52: MMTDLTSVY (peptide)
peptide: MMTDLTSVY
B53: RAVQPGETY (peptide)
peptide: RAVQPGETY
B54: AVSSGLFFY (peptide)
peptide: AVSSGLFFY
B55: YTADNEMGYY (peptide)
peptide: YTADNEMGYY
B56: LADTDLGMTF (peptide)
peptide: LADTDLGMTF
B57: LCAAVLAKY (peptide)
peptide: LCAAVLAKY
B58: VQIAKGMNY (peptide)
peptide: VQIAKGMNY
B59: LVDGKWQEF (peptide)
peptide: LVDGKWQEF
B60: TQRTSFQFY (peptide)
peptide: TQRTSFQFY
B61: SQNGQLIHY (peptide)
peptide: SQNGQLIHY
B62: VDPIGHLY (peptide)
peptide: VDPIGHLY

For this experiment, the target named is T1, HLA-A*01:01 (human).
T1 construct: MHC class I monomer first loaded with a UV-sensitive peptide (not identified) that is cleaved by UV irradiation and exchanged for the tested peptide; captured on streptavidin plates, detected with anti-β2m; also called peptide-receptive MHC molecules
In words: UV-ligand exchange, anti-b2m ELISA. An excerpt: Candidate peptides for T cell based therapies according to the present invention were further tested for their MHC binding capacity (affinity). The individual peptide-MHC complexes were produced by UV-ligand exchange, where a UV-sensitive peptide is cleaved upon UV-irradiation and exchanged with the peptide of interest as analyzed. Only peptide candidates that can effectively bind and stabilize the peptide-receptive MHC molecules prevent dissociation of the MHC complexes. To determine the yield of the exchange reaction, an ELISA was performed based on the detection of the light chain (β2m) of stabilized MHC complexes. The assay was performed as generally described in Rodenko et al. (Rodenko et al., 2006)
96 well MAXISorp plates (NUNC) were coated over night with 2 ug/ml streptavidin in PBS at room temperature, washed 4× and blocked for 1 h at 37° C. in 2% BSA containing blocking buffer. Refolded HLA-A*02:01/MLA-001 monomers served as standards, covering the range of 15-500 ng/ml. Peptide-MHC monomers of the UV-exchange reaction were diluted 100-fold in blocking buffer. Samples were incubated for 1 h at 37° C., washed four times, incubated with 2 ug/ml HRP conjugated anti-β2m for 1 h at 37° C., washed again and detected with TMB solution that is stopped with […]. Absorption was measured at 450 nm.
(An ELISA detects its analyte on a solid surface through an enzyme-linked reagent.)
For the molecule B1, the peptide exchange yield was 20 to 50%.
Next, B2: 50 to 75%; B3: 10 to 20%; B4: > 75%.
To B5 belongs 20 to 50%; to B6, 20 to 50%.
To B7 belongs 50 to 75%; to B8, 20 to 50%; to B9, 20 to 50%.
In turn, B10 came in with a peptide exchange yield of 20 to 50%.
As to B11, the peptide exchange yield was > 75%.
Next, B12: > 75%; B13: 20 to 50%.
Next, B14: 50 to 75%; B15: 20 to 50%.
In the case of B16, the peptide exchange yield is > 75%.
Next, B17: 50 to 75%; B18: 50 to 75%; B19: 20 to 50%.
Next, B20: 20 to 50%; B21: 50 to 75%; B22: 20 to 50%.
In turn, B23 returned a peptide exchange yield of 20 to 50%.
To B24 belongs 20 to 50%; to B25, 50 to 75%.
To B26 belongs 20 to 50%; to B27, 20 to 50%.
To B28 belongs 20 to 50%; to B29, 20 to 50%; to B30, 20 to 50%.
The molecule B31 displayed a peptide exchange yield of 20 to 50%.
For B32, the peptide exchange yield was > 75%.
In the case of B33, the peptide exchange yield fell in the range of 20 to 50%.
Molecule B34 displayed a peptide exchange yield of 50 to 75%.
To B35 belongs > 75%; to B36, > 75%; to B37, 50 to 75%.
To B38 belongs 20 to 50%; to B39, > 75%.
Next, B40: 20 to 50%.
With B41, the peptide exchange yield lay within 20 to 50%.
Next, B42: 20 to 50%.
Next, B43: 20 to 50%; B44: 50 to 75%.
B45 yielded a peptide exchange yield of 20 to 50%.
Next, B46: 50 to 75%.
To B47 belongs 50 to 75%; to B48, 20 to 50%; to B49, 20 to 50%.
Consider B50, for which the peptide exchange yield lay within 20 to 50%.
To B51 belongs 50 to 75%; to B52, 50 to 75%.
To B53 belongs 50 to 75%; to B54, 20 to 50%.
The molecule B55 returned a peptide exchange yield of 50 to 75%.
To B56 belongs 20 to 50%; to B57, 20 to 50%.
To B58 belongs 50 to 75%; to B59, 20 to 50%.
Next, B60: 20 to 50%; B61: 50 to 75%.
As for B62, the peptide exchange yield is 20 to 50%.
